Test results: paper doi:10.1101/2024.11.04.618112

Molecular target: His10-pA-Tn5 (recombinant protein A-Tn5 transposase with an N-terminal His10-tag) (Escherichia coli) (UniProt Q46731)
Test: SEC

Substance “His10-pA-Tn5 (recombinant protein A-Tn5 transposase with an N-terminal His10-tag) (from UniProt Q46731 1-476) (enzyme)” has a stoichiometry N of 2.
